Source: patent US20220002426A1 (BIOINVENT INTERNATIONAL, published 2022)
Read-outs that look alike come from different tables or passages of the source.

T1: wild type, full length human TNFR2 (on cells) (human, UniProt P20333 23-461)
T1 construct: whole, on cells; also called hTNFR2; TNFRII
T1 sequence (looked up): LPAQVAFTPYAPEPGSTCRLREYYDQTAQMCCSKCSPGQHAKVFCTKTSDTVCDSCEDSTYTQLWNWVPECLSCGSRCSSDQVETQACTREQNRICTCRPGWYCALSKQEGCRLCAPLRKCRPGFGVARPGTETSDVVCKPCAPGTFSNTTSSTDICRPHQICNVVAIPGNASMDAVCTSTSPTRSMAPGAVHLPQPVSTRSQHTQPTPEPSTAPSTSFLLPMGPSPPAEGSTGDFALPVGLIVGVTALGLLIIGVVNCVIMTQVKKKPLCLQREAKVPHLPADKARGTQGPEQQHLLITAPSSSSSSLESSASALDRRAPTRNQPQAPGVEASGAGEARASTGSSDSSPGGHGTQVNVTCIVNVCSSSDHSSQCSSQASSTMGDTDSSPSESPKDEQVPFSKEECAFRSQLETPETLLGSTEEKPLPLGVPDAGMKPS

T2: hTNFRII (Sinobioologicals Cat nr10414-H08H) (human, UniProt P20333 23-257)
T2 construct: bought; also called immobilized TNFR2
T2 sequence (looked up): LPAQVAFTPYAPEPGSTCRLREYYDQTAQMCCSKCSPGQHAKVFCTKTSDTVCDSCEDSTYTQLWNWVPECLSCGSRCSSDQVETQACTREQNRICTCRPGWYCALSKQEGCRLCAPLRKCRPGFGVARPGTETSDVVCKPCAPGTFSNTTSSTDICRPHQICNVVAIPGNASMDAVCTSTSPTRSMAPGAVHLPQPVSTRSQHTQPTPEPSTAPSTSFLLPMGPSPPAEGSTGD

T3: recombinant human TNFR2-Fc protein (Sino Biological) (human, UniProt P20333 23-257, limits assumed)
T3 construct: bought; also called human TNFR2 protein; not shown: Fc part of the bought fusion protein; not described
T3 sequence (looked up): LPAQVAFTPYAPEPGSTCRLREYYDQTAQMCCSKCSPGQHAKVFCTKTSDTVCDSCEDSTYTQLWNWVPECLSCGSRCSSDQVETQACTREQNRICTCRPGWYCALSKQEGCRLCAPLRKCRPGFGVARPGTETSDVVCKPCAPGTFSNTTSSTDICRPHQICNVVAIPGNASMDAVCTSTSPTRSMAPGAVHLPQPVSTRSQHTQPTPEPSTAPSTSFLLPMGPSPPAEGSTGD

T4: wild type, full length murine TNFR2 (on cells) (mouse, UniProt P25119 23-474)
T4 construct: whole, on cells; also called mTNFR2; mouse TNFR2
T4 sequence (looked up): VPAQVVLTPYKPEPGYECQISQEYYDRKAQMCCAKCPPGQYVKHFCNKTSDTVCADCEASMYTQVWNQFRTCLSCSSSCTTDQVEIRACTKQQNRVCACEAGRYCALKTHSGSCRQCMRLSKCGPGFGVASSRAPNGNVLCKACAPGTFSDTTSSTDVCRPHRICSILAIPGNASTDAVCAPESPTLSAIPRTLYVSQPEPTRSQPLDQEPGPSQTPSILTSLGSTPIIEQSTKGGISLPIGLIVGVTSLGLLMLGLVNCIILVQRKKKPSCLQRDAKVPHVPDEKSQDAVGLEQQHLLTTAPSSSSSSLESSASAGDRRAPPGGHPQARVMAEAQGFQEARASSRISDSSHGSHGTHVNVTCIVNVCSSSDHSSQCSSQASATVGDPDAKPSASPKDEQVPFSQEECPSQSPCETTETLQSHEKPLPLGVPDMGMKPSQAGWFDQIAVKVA

T5: recombinant mouse TNFR2-Fc protein (Sino Biological) (mouse, UniProt P25119 23-258, limits assumed)
T5 construct: bought; also called mTNFR2 protein; mTNFR2; not shown: Fc part of the bought fusion protein; not described
T5 sequence (looked up): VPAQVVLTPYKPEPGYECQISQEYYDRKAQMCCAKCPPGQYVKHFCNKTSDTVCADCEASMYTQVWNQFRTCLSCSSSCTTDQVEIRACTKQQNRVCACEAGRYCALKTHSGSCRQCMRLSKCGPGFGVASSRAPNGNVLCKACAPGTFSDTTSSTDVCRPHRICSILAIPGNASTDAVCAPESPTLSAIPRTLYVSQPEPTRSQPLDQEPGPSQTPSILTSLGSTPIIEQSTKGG

T6: mTNFRII (Sinobioologicals Cat No. 50128 M08H) (mouse, UniProt P25119 23-258, limits assumed)
T6 construct: bought
T6 sequence (looked up): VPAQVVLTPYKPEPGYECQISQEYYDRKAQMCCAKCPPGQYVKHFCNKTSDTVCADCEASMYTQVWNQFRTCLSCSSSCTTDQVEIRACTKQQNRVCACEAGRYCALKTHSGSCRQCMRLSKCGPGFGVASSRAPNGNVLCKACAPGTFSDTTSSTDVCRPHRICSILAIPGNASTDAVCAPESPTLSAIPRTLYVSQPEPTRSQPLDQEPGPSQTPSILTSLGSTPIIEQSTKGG

T7: Cynomolgus TNFR2 (on cynomolgus CD4+ T cells) (cynomolgus monkey (Macaca fascicularis), UniProt A0A2K5VET2 132-571)
T7 construct: whole, on cells; also called cmTNFR2; cynoTNFR2
T7 sequence: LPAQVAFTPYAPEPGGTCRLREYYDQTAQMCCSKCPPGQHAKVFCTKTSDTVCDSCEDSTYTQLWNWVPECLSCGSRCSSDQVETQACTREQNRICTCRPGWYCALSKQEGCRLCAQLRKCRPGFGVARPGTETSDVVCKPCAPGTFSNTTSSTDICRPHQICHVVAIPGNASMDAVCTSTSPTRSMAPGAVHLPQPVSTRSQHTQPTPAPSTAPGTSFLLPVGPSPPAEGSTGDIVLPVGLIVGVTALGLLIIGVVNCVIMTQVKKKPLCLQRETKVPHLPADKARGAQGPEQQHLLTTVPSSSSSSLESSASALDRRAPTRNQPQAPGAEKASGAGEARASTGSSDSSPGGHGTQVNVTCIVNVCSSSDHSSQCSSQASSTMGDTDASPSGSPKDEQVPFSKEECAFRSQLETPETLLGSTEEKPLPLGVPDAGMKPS


How the values were obtained:
[1] = molecular target: T1, wild type, full length human TNFR2 (on …); test: FACS, activated CD4+ T cells
Experimental: (§1) The ability and affinity of TNFR2 n-CoDeR® antibodies to bind TNFR2 expressed on cells were obtained using in vitro activated CD4⁺ T cells. Human CD4⁺ T cells were stimulated with 50 ng/ml rhIL-2 (R&D systems) and Dynabeads® T-Activator CD3/CD28 for T-Cell Expansion and Activation (Gibco) 2-3 days at 37 degrees. […] Cells were then incubated with an APC conjugated a-human IgG secondary ab (Jackson) followed by analysis by flow cytometry (FACSVerse, BD).

[2] = molecular target: T2, hTNFRII (Sinobioologicals Cat …); test: blocking ELISA, coated hTNFRII, competitor hTNF-α-bio 5 nM
Experimental: (§2) 96-well plates were coated with hTNFRII (Sinobioologicals Cat nr10414-H08H) or mTNFRII (Sinobioologicals Cat No. 50128 M08H) at 2.5 pmol/well in ELISA coating buffer (0.1 M sodium carbonate pH 9.5) and incubated overnight at 4° C. After washing in ELISA wash buffer (PBS with 0.05% Tween20), the plates were incubated under slow agitation for 1 h in room temperature with n-CoDeR® mAbs at 10 μg/ml (one-dose ELISA) or 33 nM and subsequent 1:2 dilutions (titration ELISA) in block buffer containing 0.45% fish gelatin. […] Thereafter, plates were washed. For the human ELISAs, Streptavidin-HRP (Jackson Cat No. 016-030-084) diluted 1:2000 in block buffer were added and again incubated for 1 h at room temperature followed by washes first in ELISA buffer and then in Tris buffer (pH 9.8). The substrate (Super Signal ELISA Pico from Thermo Scientific Cat. No. 37069) were thereafter diluted according to the manufacturers instruction, added to the wells and incubated in darkness for 10 min before reading in a Tecan Ultra. […] After washing, anti-Rabbit-HRP diluted 1:10 000 in block buffer was added and again incubated for 1 h at room temperature. Substrate adding and reading were performed as above.

[3] = molecular target: T1, wild type, full length human TNFR2 (on …); test: FACS, activated CD4+ T cells; remark: listed apart in the source
Experimental: as §1

[4] = molecular target: T3, recombinant human TNFR2-Fc protein …; test: ELISA, coated TNFR2-Fc
Experimental: (§3) 96-well plates (Lumitrac 600 LIA plate, Greiner) were coated overnight at 4° C. with recombinant human or mouse TNFR2-Fc protein (Sino Biological) at 1 pmol/well. After washing, titrated doses of anti-TNFR2 mAbs from 20 μg/ml to 0.1 ng/ml (133 nM to 1 pM) were allowed to bind for 1 hour. Plates were then washed again, and bound antibodies were detected with an anti-human-F(ab)-HRP secondary antibody (Jackson ImmunoResearch) diluted in 50 ng/ml. Super Signal ELISA Pico (Thermo Scientific) was used as substrate and the plates were analyzed using Tecan Ultra Microplate reader.

[5] = molecular target: T4, wild type, full length murine TNFR2 (on …); test: FACS, transfected HEK293 cells
[6] = molecular target: T4, wild type, full length murine TNFR2 (on …); test: FACS, activated mouse CD4+ T cells
[7] = molecular target: T5, recombinant mouse TNFR2-Fc protein …; test: ELISA, coated TNFR2-Fc
Experimental: as §3

[8] = molecular target: T6, mTNFRII (Sinobioologicals Cat No. 50128 …); test: ELISA, coated mTNFRII, mTNF-α 2 nM, rabbit anti-mTNF-α and anti-rabbit-HRP
Experimental: as §2

[9] = molecular target: T7, Cynomolgus TNFR2 (on cynomolgus CD4+ T …); test: FACS, stimulated cynomolgus CD4+ T cells, % over isotype
Experimental: To validate the cross-reactivity of TNFR2 antibodies to Cynomolgus, Cynomolgus CD4⁺ T cells were stimulated 2 days with 50 ng/ml PMA (Sigma) and 100 ng/ml lonomycin (Sigma). Cells were incubated with TNFR2 specific n-CoDeR® antibodies at 3 different concentrations (0.1, 1 and 10 μg/ml) and then incubated with an APC conjugated secondary a-human IgG reagent (Jackson).

Binder	EC50 [2] [nM]	EC50 [3] [nM]	EC50 [4] [nM]	binding result [5]	further results
004-H02 (antibody, V domains shown, IgG) VH: EVQLLESGGGLVQPGGSLRLSCAASGFTFDDYGMSWVRQAPGKGLEWVSTIYSGDNAYYGASVRGRFTISRDNSKNTLYLQMNSLRAEDTAVYYCARVYSSSWRKRAFDIWGQGTLVTVSS VL: not shown	0.4	0.59	0.2	–	EC50 [1]: 0.6 nM
001-G10 (antibody, V domains shown, IgG) VH: EVQLLESGGGLVQPGGSLRLSCAASGFTFSAYGMHWVRQAPGKGLEWVAVVSYDGREKHYADSVKGRFTISRDNSKNTLYLQMNSLRAEDTAVYYCARSDGGYDSDSGYYWGQGTLVTVSS VL: QSVLTQPPSASGTPGQRVTISCSGSTSNIGSNFVYWYQQLPGTAPKLLIYDNNKRPSGVPDRFSGSKSGTSASLAISGLRSEDEADYYCSSYAYSDNILFGGGTKLTVLG	1.6	3.3	0.29	no binding	–
005-A05 (antibody, V domains shown, also called 5-A05 (mouse)) VH: EVQLLESGGGLVQPGGSLRLSCAASGFTFSSYAMSWVRQAPGKGLEWVSTIIGSGANTWYADSVKGRFTISRDNSKNTLYLQMNSLRAEDTAVYYCARHEGYYYYGMDVWGQGTLVTVSS VL: QSVLTQPPSASGTPGQRVTISCTGSSSNIGAGYVVHWYQQLPGTAPKLLIYGNSNRPSGVPDRFSGSKSGTSASLAISGLRSEDEADYYCAAWDDSLNGRVFGGGTKLTVLG	–	–	–	–	EC50 [6]: 0.11 nM; EC50 [7]: 1.4 nM
mTNF-α (Gibco Cat. No. PMC3014) (ligand, mouse, UniProt P06804 80-235, looked up) LRSSSQNSSDKPVAHVVANHQVEEQLEWLSQRANALLANGMDLKDNQLVVPADGLYLVYSQVLFKGQGCPDYVLLTHTVSRFAISYQEKVNLLSAVKSPCPKDTPEGAELKPWYEPIYLGGVFQLEKGDQLSAEVNLPKYLDFAESGQVYFGVIAL	–	–	–	–	binding result [8]: binds
001-C03 (antibody, V domains shown, IgG; also called 1-003; 001-0O3) VH: EVQLLESGGGLVQPGGSLRLSCAASGFTFSNAWMSWVRQAPGKGLEWVSAISVSGINTYYADSVKGRFTISRDNSKNTLYLQMNSLRAEDTAVYYCARDTGSLGVDYWGQGTLVTVSS VL: QSVLTQPPSASGTPGQRVTISCSGSSSNIGSNTVNWYQQLPGTAPKLLIYRNNQRPSGVPDRFSGSKSGTSASLAISGLRSEDEADYYCQSYDSSLSISVFGGGTKLTVLG	–	53	0.75	–	EC50 [1]: 52.7 nM

More lines, main results first:

EC50 [2] [nM]	EC50 [3] [nM]	EC50 [4] [nM]	binding result [5]	Binder	further results
0.3	1.2	0.17	no binding	005-B08 (antibody, V domains shown, IgG) VH: EVQLLESGGGLVQPGGSLRLSCAASGFTFSDYYMSWIRQAPGKGLEWVAIISYDGGGKYFADPVKGRFTISRDNSKNTLYLQMNSLRAEDTAVYYCARYYGDGGFDPWGQGTLVTVSS VL: not shown	–
–	2.5	0.15	no binding	001-F06 (antibody, V domains shown, IgG) VH: EVQLLESGGGLVQPGGSLRLSCAASGFTFSSYAMHWVRQAPGKGLEWVSAISGGATTTYYADSVKGRFTISRDNSKNTLYLQMNSLRAEDTAVYYCAKGGTGDPYYFDYWGQGTLVTVSS VL: QSVLTQPPSASGTPGQRVTISCTGSSSNIGAGYDVHWYQQLPGTAPKLLIYRNNQRPSGVPDRFSGSKSGTSASLAISGLRSEDEADYYCAARDDGLSGPVFGGGTKLTVLG	–
3.2	18	1.7	–	001-G04 (antibody, V domains shown, IgG) VH: EVQLLESGGGLVQPGGSLRLSCAASGFTFNTYSMNWVRQAPGKGLEWVSVLYSDDDTHYADSVKGRFTISRDNSKNTLYLQMNSLRAEDTAVYYCARDCGGDCHSGDDAFDIWGQGTLVTVSS VL: not shown	binding result [9]: no binding (tested: 10 µg/ml)
